{"source": "patent US20040001839A1", "about": "“Multimers - isolated molecules comprising epitopes containing sulfated moieties, antibodies to such epitopes, and uses thereof” (priority 2000, published 2004)", "molecules": {"B1": {"name": "Y1 scFv: fully human scFv clone binding platelets and AML cells; SEQ ID NO:25, heavy chain CDR3 SEQ ID NO:8 (protein, listed as Homo sapiens)", "scFv": "MKYLLPTAAAGLLLLAAQPAMAEVQLVESGGGVVRPGGSLRLSCAASGFTFDDYGMSWVRQAPGKGLEWVSGINWNGGSTGYADSVKGRFTISRDNAKNSLYLQMNSLRAEDTAVYYCARMRAPVIWGQGTLVTVSRGGGGSGGGGSGGGGSSELTQDPAVSVALGQTVRITCQGDSLRSYYASWYQQKPGQAPVLVIYGKNNRPSGIPDRFSGSSSGNTASLTITGAQAEDEADYYCNSRDSSGNHVVFGGGTKLTVLGAAAEQKLISEEDLNGAA"}}, "key": {"washed platelets": {"tested_on": "washed platelets", "test": "Ristocetin-induced agglutination of washed platelets (scFv)", "format": "cell-based, human", "conditions": "for % agglutination: 100% = ristocetin treatment; for % inhibition: ristocetin-induced agglutination", "description": "Aggregation is determined in PRP due to the presence of thrombotic agents, while agglutination is determined in washed platelets. The effect of Y1 (scFv) on agglutination of washed platelets was tested at various concentrations of Y1. Platelets were pre-incubated with Y1 scFv, Y17 scFv, Y16-scFv, or a control TM-1 scFv for 4 min at 37° C. before being exposed to ristocetin, an inducer of platelet agglutination and aggregation.\nPlatelet concentrate in acid-citrate-dextrose (ACD) was obtained from a blood bank, platelets were isolated, washed once in buffer containing ACD and saline in a ratio of 1:7. The platelets were centrifuged at 800 g for 10 min after each wash and were resuspended in Tyrodes solution (2 mM MgCl2, 137 mM NaCl, 2.68 mM KCl, 3 mM NaH2PO4, 0.1% glucose, 5 mM Hepes and 0.35% albumin, pH 7.35) and count the number of cells.\nFor platelet aggregation studies, platelet rich plasma (PRP) and washed platelets were stirred at 500 rpm at 37° C. in whole blood Lumiaggregometer (Chronolog, Havertown, Pa.). The difference in light transmission through the platelet suspension and suspending medium was taken as 100% aggregation. The effect of Y1 on platelet aggregation was evaluated by addition of different concentration of Y1 before the addition of agonist, and the effect was recorded for four minutes.\nThe effect of Y17-scFv on vWF-dependent agglutination of platelets was tested at different concentrations of Y17."}, "Glycocalicin (GC)": {"target": "T1, Glycocalicin (GC) (Homo sapiens, UniProt P07359)", "T1 construct": "glycocalicin (soluble, extracellular fragment of GPIbα); from tissue; host or cells: human platelets", "test": "Western blot with Y1 on SDS-PAGE reducing gels, glycocalicin after enzyme treatment", "format": "binding", "conditions": "O-Sialo glycoprotein endopeptidase, 30′ at 37° C.", "excerpt": "(§1) Y1 ligand was further characterized using enzymatic treatments with proteases, glycanases, and […]; Western blotting with Y1, anti-CD42 antibodies, anti-CD162 antibodies and 181, immunoprecipitation using Y1 and anti-CD162 antibodies; FACS analysis using Y1 anti-CD162 antibodies; and sequencing.\n(§2) The table below summarizes the biochemical experiments preformed to characterize and localize the Y1 binding site on KG-1 cells.\n(§3) The nitrocellulose membrane was blocked using 5% skim milk for one hour at room temperature. The membrane was then washed 3 times for 5 minutes each with 0.05% Tween 20 in PBS at room temperature. The membrane was incubated with 5 μg/ml Y1-biotin (or 181-biotin) in 2% skim milk in PBS for one hour at room temperature. The membrane was then washed 3 times for 5 minutes each with cold 0.05% Tween 20 in PBS in the cold room (about 4 to about 10° C.). The membrane was then incubated in the cold room with a 1:1000 dilution of SAV-HRP (streptavidin-HRP) (at a final concentration of […]) in 2% skim milk, 0.05% Tween. The dilution was carried out at room temperature (about 25° C.), then the diluted SAV-HRP was cooled on ice for 10-15 minutes before use. The incubation was carried out for 1 hour with gentle shaking. After the incubation with SAV-HRP, the membrane was washed, as above. […]"}, "Heparin - BSA": {"tested_on": "Heparin - BSA", "test": "Western blot with Y1 on SDS-PAGE reducing gels, heparin-BSA after aryl-sulfatase", "format": "binding", "conditions": "18 hr at 22° C.", "excerpt": "as §1, §2, §3"}, "KG-1 cells": {"tested_on": "KG-1 cells", "test": "Binding competition experiments on KG-1 cells (monomer, dimer, Y1 IgG)", "design": "species or system human", "excerpt": "To compare the binding of the scFv monomer (also referred to as CONY1) with the Y1 dimer, binding competition experiments were done in vitro on KG-1 cells. In addition, these experiments also compared the binding of the full Y1 IgG to the scFv Y1 monomers. To perform this study, a Y1 IgG was labeled with biotin."}}}
{"molecule": "B1", "values": [{"measurement": "% agglutination", "setting": "washed platelets; scFv 4 μg/ml", "value": 92, "unit": "%"}, {"measurement": "% inhibition", "setting": "washed platelets; scFv 4 μg/ml", "value": 8, "unit": "%"}, {"measurement": "% inhibition", "setting": "washed platelets; scFv 4 μg/ml, listed as Y1", "value": "No inhibition"}, {"measurement": "% agglutination", "setting": "washed platelets; scFv 12.5 μg/ml", "value": 67, "unit": "%"}, {"measurement": "% inhibition", "setting": "washed platelets; scFv 12.5 μg/ml", "value": 33, "unit": "%"}, {"measurement": "% inhibition", "setting": "washed platelets; scFv 12.5 μg/ml, listed as Y1", "value": "only partial inhibition"}, {"measurement": "% agglutination", "setting": "washed platelets; scFv 25 μg/ml", "value": 23, "unit": "%"}, {"measurement": "Reactivity with Y1", "setting": "Glycocalicin (GC)", "value": "Enhanced"}, {"measurement": "Reactivity with Y1", "setting": "Heparin - BSA", "value": "Binds to"}, {"measurement": "amount bound to KG-1 cells to the same extent", "setting": "KG-1 cells; FITC-labeled, without serum", "value": 1, "unit": "µg"}, {"measurement": "competition with Y1 IgG-Biotin for binding to KG-1 cells", "setting": "KG-1 cells; Y1 IgG-Biotin 50 ng, Y1 scFvs 5 μg and 10 μg", "value": "partially competed"}]}
